This is an account of results in patent US20250352661A1 (MYTHIC THERAPEUTICS, published 2025).

Where a chain is given by its changes, count along the chain named. Numbers in names are those of the source.

To fix the notation:
T1: Human LRRC15 Protein, His Tag (Acro Biosystems) (human, UniProt Q8TF66 22-538, limits assumed)
T1 construct: not shown: His tag
T1 sequence (looked up): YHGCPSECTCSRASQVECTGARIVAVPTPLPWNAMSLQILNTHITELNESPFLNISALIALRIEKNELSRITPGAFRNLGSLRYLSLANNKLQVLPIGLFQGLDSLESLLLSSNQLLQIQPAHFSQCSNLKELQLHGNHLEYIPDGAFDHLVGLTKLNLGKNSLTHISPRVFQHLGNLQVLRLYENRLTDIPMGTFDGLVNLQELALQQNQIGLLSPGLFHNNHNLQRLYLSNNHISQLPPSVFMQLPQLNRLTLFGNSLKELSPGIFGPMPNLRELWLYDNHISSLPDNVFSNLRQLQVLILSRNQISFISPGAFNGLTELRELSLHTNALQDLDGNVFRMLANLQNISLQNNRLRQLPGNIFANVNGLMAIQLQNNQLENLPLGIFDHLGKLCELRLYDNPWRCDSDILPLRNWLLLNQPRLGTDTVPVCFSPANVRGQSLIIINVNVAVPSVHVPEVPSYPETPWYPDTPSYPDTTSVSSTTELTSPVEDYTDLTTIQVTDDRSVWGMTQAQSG

T2: Human LRRC15 Protein, His Tag (Acro Biosystems) (human, UniProt Q8TF66 22-538, limits assumed)
T2 construct: Bought protein with His tag
T2 sequence (looked up): T1 sequence (looked up)

B1: MYT9465 (antibody, V domains shown)
VH: EVQLVESGGGLVQPGGSLRLSCTASGDSFSSSHWICWVRQAPGKGLEWVGCIYAGSIGSTYYASWAKGRFTISRDTSKNTVYLQMNSLRAEDTAVYYCARAPNDIYNYYFNLWGQGTLVTVSS
VL: EIVMTQSPSTLSASVGDRVIITCQASENIYNYLAWYQQKPGKAPKLLIYYASTLASGVPSRFSGSGSGAEFTLTISSLQPDDFATYYCQSGYVSKSSTFGQGTKLTVL
notes: also called hu29F1 VH F27D
B2: MYT9468 (antibody, V domains shown)
VH: B1 VH with D27F, S30D
VL: B1 VL
notes: also called hu29F1 VH S30D
B3: MYT9466 (antibody, V domains shown)
VH: B1 VH with D27F, S28D
VL: B1 VL
notes: also called hu29F1 VH S28D
B4: MYT9470 (antibody, V domains shown)
VH: B1 VH with D27F, S32D
VL: B1 VL
notes: also called hu29F1 VH S32D
B5: MYT9469 (antibody, V domains shown)
VH: B1 VH with D27F, S31D
VL: B1 VL
notes: Humanized 29F1 VH aspartate variant; also called hu29F1 VH S31D
B6: MYT8413 (antibody, V domains shown)
VH: EVQLVESGGGLVQPGGSLRLSCTASGLDFRRTNYICWVRQAPGKGLEWVGCIYIADVVHYYASWAKGRFTFSRDTSKNTVYLQMNSLRAEDTAVYYCARGADGGFVYGMDLWGQGTLVTVSS
VL: EIVMTQSPSTLSASVGDRVIITCQASQSIHNYLSWYQQKPGKAPKRLIYSASTLPSGVPSRFSGSGSGAEFTLTISSLQPDDFATYYCQNNYWLAGYGHPFGQGTKLTVL
notes: hu15G7 VL G30H; human Fc
B7: MYT8426 (antibody, V domains shown)
VH: B6 VH
VL: B6 VL with H30G, Y92H, G96H
notes: hu15G7 VL Y92H, G96H; human Fc
B8: MYT8420 (antibody, V domains shown)
VH: B6 VH
VL: B6 VL with W93H
notes: hu15G7 VL G30H, W93H; human Fc
B9: MYT8424 (antibody, V domains shown)
VH: B6 VH
VL: B6 VL with H30G, Y32H, G96H
notes: hu15G7 VL Y32H, G96H; human Fc
B10: MYT8430 (antibody, V domains shown)
VH: B6 VH
VL: B6 VL with Y32H, G96H
notes: hu15G7 VL G30H, Y32H, G96H; human Fc
B11: MYT8433 (antibody, V domains shown)
VH: B6 VH
VL: B6 VL with W93H, G96H
notes: hu15G7 VL G30H, W93H, G96H; human Fc
B12: MYT8431 (antibody, V domains shown)
VH: B6 VH
VL: B6 VL with Y92H, W93H
notes: hu15G7 VL G30H, Y92H, W93H; human Fc
B13: MYT8421 (antibody, V domains shown)
VH: B6 VH
VL: B6 VL with G96H
notes: hu15G7 VL G30H, G96H; human Fc
B14: MYT8414 (antibody, V domains shown)
VH: B6 VH
VL: B6 VL with H30G, Y32H
notes: hu15G7 VL Y32H; human Fc
B15: MYT8418 (antibody, V domains shown)
VH: B6 VH
VL: B6 VL with Y32H
notes: hu15G7 VL G30H, Y32H; human Fc
B16: MYT8429 (antibody, V domains shown)
VH: B6 VH
VL: B6 VL with Y32H, W93H
notes: hu15G7 VL G30H, Y32H, W93H; human Fc
B17: MYT8422 (antibody, V domains shown)
VH: B6 VH
VL: B6 VL with H30G, Y32H, Y92H
notes: hu15G7 VL Y32H, Y92H; human Fc
B18: MYT8425 (antibody, V domains shown)
VH: B6 VH
VL: B6 VL with H30G, Y92H, W93H
notes: hu15G7 VL Y92H, W93H; human Fc
B19: MYT8437 (antibody, V domains shown)
VH: B6 VH
VL: B6 VL with H30G, Y92H, W93H, G96H
notes: hu15G7 VL Y92H, W93H, G96H; human Fc
B20: MYT8436 (antibody, V domains shown)
VH: B6 VH
VL: B6 VL with H30G, Y32H, W93H, G96H
notes: hu15G7 VL Y32H, W93H, G96H; human Fc
B21: MYT8434 (antibody, V domains shown)
VH: B6 VH
VL: B6 VL with H30G, Y32H, Y92H, W93H
notes: hu15G7 VL Y32H, Y92H, W93H; human Fc
B22: MYT8435 (antibody, V domains shown)
VH: B6 VH
VL: B6 VL with H30G, Y32H, Y92H, G96H
notes: hu15G7 VL Y32H, Y92H, G96H; human Fc
B23: MYT8419 (antibody, V domains shown)
VH: B6 VH
VL: B6 VL with Y92H
notes: hu15G7 VL G30H, Y92H; human Fc
B24: MYT8423 (antibody, V domains shown)
VH: B6 VH
VL: B6 VL with H30G, Y32H, W93H
notes: hu15G7 VL Y32H, W93H; human Fc
B25: MYT8427 (antibody, V domains shown)
VH: B6 VH
VL: B6 VL with H30G, W93H, G96H
notes: hu15G7 VL W93H, G96H; human Fc

In the first experiment the target is T1, Human LRRC15 Protein, His Tag (Acro …). Kind of experiment: BLI; dissociation pH 7.4 black, pH 5.4 grey [1/2); D00019 FIG. 4B (1/2]. Here is the method:
Desirable mutations were transferred to a humanized framework (humanized, MYT 8387-8411). After allowing for four days of protein expression, cell culture supernatants were collected, quantified by SDS-PAGE analysis, and the pH dependence of the variant was evaluated using biolayer interferometry (BLI) on an Octet RED 96e instrument. Briefly, cell culture supernatants were diluted based on qualitative expression level of the variant determined by visual examination of SDS-PAGE gels, 5 μL of cell culture supernatant was diluted into 195 μL of 1×PBST, pH 7.4 for high expressors, 25 μL of cell culture supernatant was diluted into 175 μL of 1×PBST, pH 7.4 for medium expressors and 100 μL of cell culture supernatant was diluted into 100 μL of 1×PBST, pH 7.4 for low expressors for loading onto the sensor tips. The resulting diluted supernatants were then captured on an anti-human Fc sensor (Forte Bio). A baseline was established using 1×PBST (50 mM Potassium Phosphate Buffer+150 mM NaCl+0.05% Tween 20) pH 7.4, and the […] was associated with 50 nM of LRRC15 (Human LRRC15 Protein, His Tag, Acro Biosystems) in 1×PBST pH 7.4 for 120 sec to generate an association curve. In the dissociation phase, the antibody-antigen complex on the sensor was exposed to 1×PBST pH 7.4 or pH 5.4, for 300 sec. Association and dissociation phase curves were examined for the starting ABPC antibody (with no substitutions) and each corresponding antibody variant at pH 5.4 and pH 7.4 to inform on two criteria: a) enhanced dissociation (i.e., higher koff values) at pH 5.4 due to histidine substitution compared to the starting ABPC, (with no substitutions), and b) reduced dissociation at pH 7.4 (i.e., lower koff values) compared to pH 5.4 in the antibody variant itself and with the starting ABPC (with no substitutions).
The methods of Examples 9-10 were applied to RabMAb clone 29F1 (rabbit VH SEQ ID NO: 572 and VL SEQ ID NO: 578; and humanized VH SEQ ID NO: 576 and VL SEQ ID NO: 582).
As to B1, the binding result was “binds”.

For B2, the binding result is “binds”.

B3: the binding result is reported as “binds”.

For the molecule B4, the binding result was “binds”.

Consider B5, for which the binding result is on record as “binds”.

For another experiment, the target named is T2, Human LRRC15 Protein, His Tag (Acro …). Kind of experiment: BLI; dissociation pH 7.4 black, pH 5.4 grey [D00010 FIG. 1H]. From the text:
For each individual plot, antigen binding proteins were captured on anti-human Fc biosensors and associated with LRRC15 at pH 7.4. Dissociation was at pH 7.4 (black) or pH 5.4 (grey). Major X-axis ticks=100 seconds, with left dashed vertical line=0 seconds. Major Y-axis ticks=0.5 nm and octet plots are shown MYT5712 and MYT6080-MYT6121.
Multiple LRRC15-binding monoclonal antibodies have been described in the literature and can be used as a template for engineering pH-dependent binding. We selected discovery RabMAb clone 15G7 (rabbit VH SEQ ID NO: 378, rabbit VL SEQ ID NO: 451; humanized VH SEQ ID NO: 382, humanized VL SEQ ID NO: 455) as a LRRC15-binding monoclonal antibody for pH-engineering via histidine scanning. […] To generate pH-dependent sequence variants, individual amino acid residues within the heavy chain CDRs were systematically substituted with a histidine (or alanine if H was already present in a given position; e.g., MYT6099), one at a time (rabbit, MYT6080-6121). Desirable mutations were transferred to a humanized framework (humanized, MYT 8387-8411). After allowing for four days of protein expression, cell culture supernatants were collected, quantified by SDS-PAGE analysis, and the pH dependence of the variant was evaluated using biolayer interferometry (BLI) on an Octet RED 96e instrument. Briefly, cell culture supernatants were diluted based on qualitative expression level of the variant determined by visual examination of SDS-PAGE gels, 5 μL of cell culture supernatant was diluted into 195 μL of 1×PBST, pH 7.4 for high expressors, 25 μL of cell culture supernatant was diluted into 175 μL of 1×PBST, pH 7.4 for medium expressors and 100 μL of cell culture supernatant was diluted into 100 μL of 1×PBST, pH 7.4 for low expressors for loading onto the sensor tips.
On the technique in general: Biolayer interferometry detects binding as a change in optical thickness at a sensor tip.
Regarding B6, the binding result is reported as “binds”.

As to B7, the binding result was “binds”.

Consider B8, for which the binding result is given as “binds”.

Regarding B9, the binding result was “binds”.

For the molecule B10, the binding result is listed as “binds”.

In the case of B11, the binding result is “binds”.

In the case of B12, the binding result is given as “binds”.

In the case of B13, the binding result was “binds”.

In the case of B14, the binding result is listed as “binds”.

Turning to B15, the binding result was “binds”.

As for B16, the binding result is recorded as “no binding (tested: 50 nM LRRC15)”.

B17: the binding result is reported as “binds”.

As for B18, the binding result is recorded as “binds”.

Regarding B19, the binding result was “no binding (tested: 50 nM LRRC15)”.

On to B20, for which the binding result is “no binding (tested: 50 nM LRRC15)”.

Take B21: the binding result is listed as “no binding (tested: 50 nM LRRC15)”.

Consider B22, for which the binding result is on record as “no binding (tested: 50 nM LRRC15)”.

Consider B23, for which the binding result is on record as “binds”.

For B24, the binding result is given as “no binding (tested: 50 nM LRRC15)”.

B25: the binding result is “binds”.
